According to US20230140293A1:

Assays:
Assay in all cases: cell-based or functional assay
[1] = biological target: CH0505.w4.3 Env, Env-pseudotyped virus produced in 293T cells (HIV-1)
[2] = biological target: CH0505TF Env, Env-pseudotyped virus produced in 293S GnTI- cells (Man5-enriched) (HIV-1)
[3] = biological target: CH0505TF Env, Env-pseudotyped virus produced in 293T cells (HIV-1)
[4] = biological target: CH0505TF.G458Y Env, Env-pseudotyped virus produced in 293S GnTI- cells (Man5-enriched) (HIV-1)
[5] = biological target: CH0505TF.G458Y Env, Env-pseudotyped virus produced in 293T cells (HIV-1)
[6] = biological target: CH0505TF.gly3.197 Env, Env-pseudotyped virus produced in 293S GnTI- cells (Man5-enriched) (HIV-1)
[7] = biological target: CH0505TF.gly3.197 Env, Env-pseudotyped virus produced in 293T cells (HIV-1)
[8] = biological target: CH0505TF.gly3.276 Env, Env-pseudotyped virus produced in 293S GnTI- cells (Man5-enriched) (HIV-1)
[9] = biological target: CH0505TF.gly3.276 Env, Env-pseudotyped virus produced in 293T cells (HIV-1)
[10] = biological target: CH0505TF.gly3.461 Env, Env-pseudotyped virus produced in 293S GnTI- cells (Man5-enriched) (HIV-1)
[11] = biological target: CH0505TF.gly3.461 Env, Env-pseudotyped virus produced in 293T cells (HIV-1)
[12] = biological target: CH0505TF.gly4 Env, Env-pseudotyped virus produced in 293S GnTI- cells (Man5-enriched) (HIV-1)
[13] = biological target: CH0505TF.gly4 Env, Env-pseudotyped virus produced in 293T cells (HIV-1)
[14] = biological target: HIV-1 426c.DM (N460D/N463D) Env on Env-pseudotyped virus produced in 293T cells (HIV-1)
[15] = biological target: HIV-1 426c.DM (N460D/N463D) Env on Env-pseudotyped virus produced in 293s/GnTI-/- cells (Man5-enrichment) (HIV-1)
[16] = biological target: HIV-1 426c.SM (N276D) Env on Env-pseudotyped virus produced in 293T cells (HIV-1)
[17] = biological target: HIV-1 426c.SM (N276D) Env on Env-pseudotyped virus produced in 293s/GnTI-/- cells (Man5-enrichment) (HIV-1)
[18] = biological target: HIV-1 426c.TM (N276D/N460D/N463D) Env on Env-pseudotyped virus produced in 293T cells (HIV-1)
[19] = biological target: HIV-1 426c.TM (N276D/N460D/N463D) Env on Env-pseudotyped virus produced in 293s/GnTI-/- cells (Man5-enrichment) (HIV-1)
[20] = biological target: HIV-1 Env 426c, Env-pseudotyped virus produced in 293S GnTI- cells (Man5-enriched) (HIV-1 clade C strain 426c)
[21] = biological target: HIV-1 Env 426c, Env-pseudotyped virus produced in 293T cells (HIV-1 clade C strain 426c)
[22] = biological target: HIV-1 Env 426c.DM (N460D.N463D), Env-pseudotyped virus produced in 293S GnTI- cells (Man5-enriched) (HIV-1 clade C strain 426c)
[23] = biological target: HIV-1 Env 426c.DM (N460D.N463D), Env-pseudotyped virus produced in 293T cells (HIV-1 clade C strain 426c)
[24] = biological target: HIV-1 Env 426c.SM (N276D), Env-pseudotyped virus produced in 293S GnTI- cells (Man5-enriched) (HIV-1 clade C strain 426c)
[25] = biological target: HIV-1 Env 426c.SM (N276D), Env-pseudotyped virus produced in 293T cells (HIV-1 clade C strain 426c)
[26] = biological target: HIV-1 Env 426c.TM (N276D.N460D.N463D), Env-pseudotyped virus produced in 293S GnTI- cells (Man5-enriched) (HIV-1 clade C strain 426c)
[27] = biological target: HIV-1 Env 426c.TM (N276D.N460D.N463D), Env-pseudotyped virus produced in 293T cells (HIV-1 clade C strain 426c)
[28] = biological target: HIV-1 Env 426c.TM4 (S278R.G471S.N460D.N463D), Env-pseudotyped virus produced in 293S GnTI- cells (Man5-enriched) (HIV-1 clade C strain 426c)
[29] = biological target: HIV-1 Env 426c.TM4 (S278R.G471S.N460D.N463D), Env-pseudotyped virus produced in 293T cells (HIV-1 clade C strain 426c)
[30] = biological target: HIV-1 clade C strain 426c Env on Env-pseudotyped virus produced in 293T cells (HIV-1)
[31] = biological target: HIV-1 clade C strain 426c Env on Env-pseudotyped virus produced in 293s/GnTI-/- cells (Man5-enrichment) (HIV-1)

Substance | IC50 (µg/ml) in TZM-bl [2] | IC50 (µg/ml) in TZM-bl [3] | IC50 (µg/ml) in TZM-bl [4] | IC50 (µg/ml) in TZM-bl [5] | IC50 (µg/ml) in TZM-bl [6] | IC50 (µg/ml) in TZM-bl [7] | IC50 (µg/ml) in TZM-bl [8] | IC50 (µg/ml) in TZM-bl [9] | IC50 (µg/ml) in TZM-bl [10] | IC50 (µg/ml) in TZM-bl [11] | IC50 (µg/ml) in TZM-bl [12] | IC50 (µg/ml) in TZM-bl [13] | IC50 (µg/ml) in TZM-bl [20] | IC50 (µg/ml) in TZM-bl [21] | IC50 (µg/ml) in TZM-bl [22] | IC50 (µg/ml) in TZM-bl [23] | IC50 (µg/ml) in TZM-bl [24] | IC50 (µg/ml) in TZM-bl [26] | IC50 (µg/ml) in TZM-bl [28] | IC50 (µg/ml) in TZM-bl [29] | also measured
2F5 (antibody) | > 25 µg/mL | > 25 µg/mL | > 25 µg/mL | > 25 µg/mL | > 25 µg/mL | > 25 µg/mL | > 25 µg/mL | > 25 µg/mL | > 25 µg/mL | > 25 µg/mL | > 25 µg/mL | > 25 µg/mL | > 25 µg/mL | > 25 µg/mL | > 25 µg/mL | > 25 µg/mL | > 25 µg/mL | > 25 µg/mL | > 25 µg/mL | > 25 µg/mL | IC50 (µg/ml) in TZM-bl [1]: > 25 µg/mL; ID50/IC50 in TZM-bl [14]: > 25 µg/mL; ID50/IC50 in TZM-bl [15]: > 25 µg/mL; ID50/IC50 in TZM-bl [16]: > 25 µg/mL; ID50/IC50 in TZM-bl [17]: > 25 µg/mL; ID50/IC50 in TZM-bl [18]: > 25 µg/mL; ID50/IC50 in TZM-bl [19]: > 25 µg/mL; IC50 (µg/ml) in TZM-bl [25]: > 25 µg/mL; IC50 (µg/ml) in TZM-bl [27]: > 25 µg/mL; ID50/IC50 in TZM-bl [30]: > 25 µg/mL; ID50/IC50 in TZM-bl [31]: > 25 µg/mL
2G12 (antibody) | > 25 µg/mL | > 25 µg/mL | > 25 µg/mL | > 25 µg/mL | > 25 µg/mL | > 25 µg/mL | > 25 µg/mL | > 25 µg/mL | > 25 µg/mL | > 25 µg/mL | > 25 µg/mL | > 25 µg/mL | > 25 µg/mL | > 25 µg/mL | > 25 µg/mL | > 25 µg/mL | > 25 µg/mL | > 25 µg/mL | > 25 µg/mL | > 25 µg/mL | IC50 (µg/ml) in TZM-bl [1]: > 50 µg/mL; ID50/IC50 in TZM-bl [14]: > 25 µg/mL; ID50/IC50 in TZM-bl [15]: > 25 µg/mL; ID50/IC50 in TZM-bl [16]: > 25 µg/mL; ID50/IC50 in TZM-bl [17]: > 25 µg/mL; ID50/IC50 in TZM-bl [18]: > 25 µg/mL; ID50/IC50 in TZM-bl [19]: > 25 µg/mL; IC50 (µg/ml) in TZM-bl [25]: > 25 µg/mL; IC50 (µg/ml) in TZM-bl [27]: > 25 µg/mL; ID50/IC50 in TZM-bl [30]: > 25 µg/mL; ID50/IC50 in TZM-bl [31]: > 25 µg/mL
10E8 (antibody) | 2.2 µg/mL | 4.4 µg/mL | 2.1 µg/mL | 1.1 µg/mL | 4 µg/mL | 3.4 µg/mL | 2.3 µg/mL | 3.3 µg/mL | 2.5 µg/mL | 3.3 µg/mL | 2.2 µg/mL | 2.7 µg/mL | 0.35 µg/mL | 0.8 µg/mL | 0.45 µg/mL | 1.11 µg/mL | 0.28 µg/mL | 0.51 µg/mL | 0.19 µg/mL | 0.53 µg/mL | IC50 (µg/ml) in TZM-bl [1]: 1.1 µg/mL; IC50 (µg/ml) in TZM-bl [25]: 1.26 µg/mL; IC50 (µg/ml) in TZM-bl [27]: 1.52 µg/mL
PGDM1400 (antibody) | 0.007 µg/mL | 0.006 µg/mL | 0.002 µg/mL | 0.006 µg/mL | 0.003 µg/mL | 0.01 µg/mL | 0.004 µg/mL | 0.02 µg/mL | 0.008 µg/mL | 0.04 µg/mL | 0.007 µg/mL | 0.016 µg/mL | > 5 µg/mL | > 25 µg/mL | > 5 µg/mL | > 25 µg/mL | > 5 µg/mL | > 5 µg/mL | > 5 µg/mL | > 5 µg/mL | ID50/IC50 in TZM-bl [14]: > 25 µg/mL; ID50/IC50 in TZM-bl [15]: > 5 µg/mL; ID50/IC50 in TZM-bl [16]: > 25 µg/mL; ID50/IC50 in TZM-bl [17]: > 5 µg/mL; ID50/IC50 in TZM-bl [18]: > 25 µg/mL; ID50/IC50 in TZM-bl [19]: > 5 µg/mL; IC50 (µg/ml) in TZM-bl [25]: > 25 µg/mL; IC50 (µg/ml) in TZM-bl [27]: > 25 µg/mL; ID50/IC50 in TZM-bl [30]: > 25 µg/mL; ID50/IC50 in TZM-bl [31]: > 5 µg/mL
VRC03 (antibody) |  |  |  |  |  |  |  |  |  |  |  |  | 0.014 µg/mL |  | 0.005 µg/mL |  | 0.003 µg/mL | 0.003 µg/mL | < 0.002 µg/mL | 0.003 µg/mL | 
VRC04 (antibody) |  |  |  |  |  |  |  |  |  |  |  |  | 0.18 µg/mL |  | 0.05 µg/mL |  | 0.02 µg/mL | 0.01 µg/mL | < 0.002 µg/mL | 0.013 µg/mL | 
VRC07 (antibody) |  |  |  |  |  |  |  |  |  |  |  |  | 0.07 µg/mL |  | 0.05 µg/mL |  | 0.02 µg/mL | 0.009 µg/mL | < 0.002 µg/mL | < 0.002 µg/mL | 
VRC018 (antibody) |  |  |  |  |  |  |  |  |  |  |  |  | 0.06 µg/mL |  | 0.02 µg/mL |  | 0.01 µg/mL | 0.006 µg/mL | < 0.002 µg/mL | 0.005 µg/mL | 
VRC20 (VRC-PG20) (antibody) |  |  |  |  |  |  |  |  |  |  |  |  | 0.015 µg/mL |  | 0.007 µg/mL |  | 0.004 µg/mL | 0.005 µg/mL | 0.008 µg/mL | < 0.002 µg/mL | 
VRC23 (antibody) |  |  |  |  |  |  |  |  |  |  |  |  | 0.19 µg/mL |  | 0.06 µg/mL |  | 0.1 µg/mL | 3.1 µg/mL | < 0.002 µg/mL | 0.082 µg/mL | 
VRC34.01 (antibody) | 0.1 µg/mL | 0.55 µg/mL | 0.03 µg/mL | 0.21 µg/mL | 0.17 µg/mL | 2.1 µg/mL | 0.14 µg/mL | 0.62 µg/mL | 0.17 µg/mL | 0.84 µg/mL | 0.14 µg/mL | 0.94 µg/mL | 0.05 µg/mL | 0.08 µg/mL | 0.04 µg/mL | 0.09 µg/mL | 0.07 µg/mL | 0.07 µg/mL | 0.07 µg/mL | 0.13 µg/mL | IC50 (µg/ml) in TZM-bl [1]: > 25 µg/mL; IC50 (µg/ml) in TZM-bl [25]: 0.06 µg/mL; IC50 (µg/ml) in TZM-bl [27]: 0.08 µg/mL
VRC34.1 (antibody) |  |  |  |  |  |  |  |  |  |  |  |  |  |  |  |  |  |  |  |  | ID50/IC50 in TZM-bl [14]: 0.09 µg/mL; ID50/IC50 in TZM-bl [15]: 0.04 µg/mL; ID50/IC50 in TZM-bl [16]: 0.06 µg/mL; ID50/IC50 in TZM-bl [17]: 0.07 µg/mL; ID50/IC50 in TZM-bl [18]: 0.08 µg/mL; ID50/IC50 in TZM-bl [19]: 0.07 µg/mL; ID50/IC50 in TZM-bl [30]: 0.08 µg/mL; ID50/IC50 in TZM-bl [31]: 0.05 µg/mL
